# Measurements taken from paper PMC8752898 (The Journal of Biological Chemistry, 2021).
# Ends that are not written are not given here.
# T1: His6-SUMO-tagged MYC3 (44–238) (Arabidopsis thaliana, UniProt Q9FIP9)
# T1 sequence (Q9FIP9 44-238): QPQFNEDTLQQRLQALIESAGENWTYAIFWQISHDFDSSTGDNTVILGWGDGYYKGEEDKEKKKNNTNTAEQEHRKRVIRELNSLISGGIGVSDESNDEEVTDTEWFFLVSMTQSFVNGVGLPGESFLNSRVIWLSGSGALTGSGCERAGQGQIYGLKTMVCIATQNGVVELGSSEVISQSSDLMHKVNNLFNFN
# T2: His6-SUMO-tagged MYC3 (44-238) (Arabidopsis thaliana, UniProt Q9FIP9 44-238)
# T2 sequence (looked up): T1 sequence (Q9FIP9 44-238)
# Columns and labels:
# FLAG-MYC3 (full-length) = test: AlphaScreen assay of interaction with FLAG-MYC3; type: binding, Arabidopsis; conditions: FLAG-MYC3 50 nM, triplicate, in words; for AlphaScreen interaction of biotin-conjugated peptide with MYC3: Biotin-MED25^CMIDM 50, 150 or 250 nM
# [1] = biological target: T1, His6-SUMO-tagged MYC3 (44–238); test: Fluorescence anisotropy; type: binding; conditions: in words
# [2] = biological target: T2, His6-SUMO-tagged MYC3 (44-238); test: fluorescence polarisation
Molecule,AlphaScreen interaction of biotin-conjugated peptide with MYC3 (FLAG-MYC3 (full-length)),Kd [2],other results
Biotin-MED25^CMIDM: biotin-conjugated CMIDM peptide of MED25 (614–655) (YVGKADFLVFRAMSQHGFLGQLQDKKLCAVIQLPSQTLLLSV; not fully specified (N-terminus); also: biotin-conjugated),directly interact with MYC3,,AlphaScreen interaction of partial peptides with FLAG-MYC3 (FLAG-MYC3 (full-length); peptide 150 nM each (Fig. 4D)): strong interaction
JAZ10^CMID: cryptic MYC-interacting domain of JAZ10 (26–58aa) (FQKFLDRRRSFRDIQGAISKIDPEIIKSLLAST; also: 5-carboxyfluorescein-conjugated) [reference compound],,,binding affinity for MYC compared with Jas motif of JAZ and MED25 [1]: stronger binding affinity for MYC than both the Jas motif of JAZ and MED25
"MED25^CMIDM: CMID-like MYC-interacting domain, amino acids 614 to 655 of MED25 (YVGKADFLVFRAMSQHGFLGQLQDKKLCAVIQLPSQTLLLSV; also: biotin-conjugated)",confirmed,,interaction between MYC3 and CMIDM in FA assay ([1]; Fig. 5B): confirmed
"FQKFLDRRRSFRDIQGAISKIDPEIIKSLLAST (peptide, UniProt Q93ZM9 26-58, looked up, also: 5-carboxyfluorescein-conjugated) [fluorescein-conjugated JAZ10^CMID (26-58aa)]",,470 nM,
"YVGKADFLVFRAMSQHGFLGQLQDKKLCAVIQLPSQTLLLSV (peptide, UniProt Q7XYY2 614-655, looked up, also: 5-carboxyfluorescein-conjugated) [fluorescein-conjugated MED25^CMIDM (614-655aa)]",,1900 nM,
